Experimental data reported in the supplement of paper PMC9170038.

Test system: MS2 coat protein
Assay: apparent KD of MS2 coat protein; designed switch direction (-1 OFF switch, 1 ON switch): -1; higher = weaker reporter binding
How it was run: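 Each step of the titration lasted 0.8–1.5 h at the lowest concentration and 10–20 min at the highest. The protein, SNAP-549-labelled MS2 coat protein, went from 0.7 or 1.5 nM doubling to 3 µM over RNA switches transcribed on Illumina chips by stalled E. coli RNA polymerase. Normalised cluster fluorescence was curve-fitted, and the per-design median over clusters is given as apparent KD.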

[1] = input ligand: microRNA oligo, concentration not stated
[2] = Eterna round: R95, input ligand: FMN 200 uM
[3] = Eterna round: R95, input ligand: microRNA oligo, concentration not stated
[4] = Eterna round: R95, input ligand: none

Row | Sequence | apparent KD of MS2 coat protein (input ligand: FMN 200 uM) | apparent KD of MS2 coat protein [1] | apparent KD of MS2 coat protein (input ligand: none) | apparent KD of MS2 coat protein [2] | apparent KD of MS2 coat protein [3] | apparent KD of MS2 coat protein [4]
1 | UCUCGCGGGCAAGGAUAUCCCACACUGUUCUGGCCCGUGUCUGUUACAUGAGGAUCACCCAUGUGGGAGAAGGUGCACCAGGGC [Design 44] (Eterna round: R96, puzzle: Exclusion NG 2) | 0.0788 µM | 0.0316 µM | 0.0359 µM |  |  | 
2 | AGAUCUCAUGACGUUUGCAACAUGAGGAUCACCCAUGUGAGGAGGGUAAACAAACCAAGCUUCGUGCUCGUCUAUAA [Eternabot (Original) Solution 46] (Eterna round: R97, puzzle: Sensor, turn-off variant 1) | 0.0389 µM |  | 0.0523 µM |  |  | 
3 | GCCUGCUGGCGAGGAUAUUCUGUGCGGUUCCGGCUCGUGUCUGUUACAUGAGGAUCACCCAUGUGGGAGAAGGUGUCUGUGGCC [Design 100] (Eterna round: R96, puzzle: Exclusion NG 2) | 0.0125 µM | 0.0101 µM | 0.0147 µM |  |  | 
4 | AAUCCUGAAGUUAGGAUAUGAAGUAUCACUACACUUCAGAAGGAACUUGAGGAUCACCCAAGUAGCCGUGAGGC [jl-bmx4.4.63 ViennaUCT mod] (Eterna round: R97, puzzle: Brourd's mod of Exclusion 4) | 0.096 µM |  | 0.0203 µM |  |  | 
5 | AAGUACCGUCACGAUAGUGAUGGUACAACAAGUAAAUGUACAUGAGGAUCACCCAUGUCCUCUUUUGCUCGUCUUAU [Sensor 3 - 91] (puzzle: Sensor v3, turn-off variant 2) |  |  |  | 0.144 µM | 0.033 µM | 0.166 µM
6 | CCUCUGUGAGGAUAUGGGCCCGGGCCCGUGAGGGCCCGGGCCCAGAAGGCACAUGAGGAUCACCCAUGUGGCUU [Energy optimization 2] (Eterna round: R97, puzzle: Exclusion 4) | 0.0944 µM |  | 0.02 µM |  |  | 
7 | AUCCUACAUGAGGAUCACCCAUGUCAGGAUAUCCAAGAAAUAUGGCCGUAUCGGCCAUGGAGAAGGGAUAUGGG [jl-ex1-4.67 ViennaUCT mod] (Eterna round: R97, puzzle: Exclusion 1) | 0.0265 µM |  | 0.115 µM |  |  | 
8 | AAUUAUUUAUGAGGAUAUUGUGGUGAAACACCACAAGAAGGCAUGAUACACAUGAGGAUCACCCAUGUGAGCCUGAUGCUUAUG [Ex NG1 #54] (Eterna round: R96, puzzle: Exclusion NG 1) |  | 0.0137 µM |  |  |  | 
9 | CAGUACUGAGGAUAUACAUGAGGAUCACCCAUGUGUCCUCUAUUAGGAAACUAGUUAUGUAGAAGGCAGUACUG [Omei Ex3 Mod of Eli 4.27 v10] (Eterna round: R97, puzzle: Exclusion 3) | 1.05 µM |  | 1.05 µM |  |  | 
10 | UCUCCCACUCGAGGAUAUCCAUAGAGCAACUGAGGAGAAGGCGAGUGUCCAAAACAUGAGGAUCACCCAUGUGACCUCCCGAAC [Eredgein] (Eterna round: R96, puzzle: Exclusion NG 1) | 0.101 µM | 0.0375 µM | 0.0396 µM |  |  | 
11 | CUUUUGUGAGGAUAUUAGUAGUAUAUAAAUAAAAUUACUACUGAGAAGGCACAUGAGGAUCACCCAUGUUCCUC [salish99_ex4_r3_052] (puzzle: Exclusion 4) |  |  |  |  | 0.0304 µM | 
12 | AAGAAGUGAGGAUAUGCAAAGAAAGAAAGAAAGAAAGAAAAGCAGAAGGCACAUGAGGAUCACCCAUGUAAAGA [Fourth Time] (puzzle: Exclusion 4) |  |  |  | 0.0205 µM | 0.0165 µM | 0.0156 µM
13 | GCAGCAUAGUUUACUGACUGUUACAUGAGGAUCACCCAUGUUCAGGAUAUGGUCUGGAUUACAGGCCAGAAGGGAACAAGCUGC [Eli exng3 - 030] (Eterna round: R96, puzzle: Exclusion NG 3) | 0.00917 µM | 0.0109 µM | 0.0106 µM |  |  | 
14 | CUCUAGUCAGGAUAUUAGUUGCCGCCUGGACACAAGCGGCAUGAGAAGGGACUUGAGGAUCACCCAAGUAAAAG [Tibela] (Eterna round: R97, puzzle: Exclusion 4) | 2.85 µM |  | 0.393 µM |  |  | 
15 | AGUGUGAGGCAGGAUAUGCAAUAUGUAAGUAAUGCAGAAGGGUCUACAUGAGGAUCACCCAUGUGUGCGGUUGA [Ex6 #10] (Eterna round: R97, puzzle: Exclusion 6) | 0.282 µM |  | 0.192 µM |  |  | 
16 | UAUUAGCAAGCGAGGUCCCACAUGAGGAUCACCCAUGUGCUCGUCUUAUAAGGUACUGUGACGAUAGUCACGGUACC [Mat - Sensor, turn-off var - Eli Mod - D33] (Eterna round: R97, puzzle: Sensor, turn-off variant 1) | 0.0146 µM |  | 0.0146 µM |  |  | 
17 | AACCUGAGGCUUUGCUUUAGGUUUACAUGAGGAUCACCCAUGUAGGAUAUGGUAGGCUUUGCUUACCAGAAGGACAUGUUAAUU [Mat - Exclusion NG 3 - Mod of JL - D26] (Eterna round: R96, puzzle: Exclusion NG 3) | 0.241 µM | 0.025 µM | 0.0442 µM |  |  | 
18 | CUUUACAAGCUAAGAUCCUACAUGAGGAUCACCCAUGUGGUCCGGUGACGUGAGUCACCGGACUUAGCUCGUCUUGU [salish99_S_TOV1_R5_096] (Eterna round: R97, puzzle: Sensor, turn-off variant 1) | 0.0415 µM |  | 0.0426 µM |  |  | 
19 | AAGUACCGUCACGAAAGUGAUGGUACAACAAGCAUGUAAACAUGAGGAUCACCCAUGUCCUCAAAUGCUCGUCUUAU [Sensor 3 - 62] (puzzle: Sensor v3, turn-off variant 2) |  |  |  | 0.732 µM | 2.02 µM | 0.776 µM
20 | CUUUUGCAACAAGCCAAUAACAUGAGGAUCACCCAUGUCCUGUUGAGGUCUUCCGUCGUUCUUGCUCACGUCUUACG [Eternabot (L1) Solution 50] (Eterna round: R97, puzzle: Sensor, turn-off variant 1) | 0.0548 µM |  | 0.0563 µM |  |  | 
21 | GAUCUGGCAGGAUAUACAUGAGGAUCACCCAUGUGCGAGCUAGCGAAAGCUAGCUCAGGUAGAAGGGUCAGAUC [Ex3 dot plot directed v1] (puzzle: Exclusion 3) |  |  |  |  | 0.0108 µM | 
22 | UUAAAUCAUGUAGGAUAUGCGUGGCGAAGCUAUGCAGAAGGACAUGAGGAUCACCCAUGUUCUUCCGUCUGCGUACAGAUGGAA [JL ENG1 1.08] (Eterna round: R96, puzzle: Exclusion NG 1) | 0.271 µM | 0.0338 µM | 0.0363 µM |  |  | 
